Earlier results as cited in publication PMC5671728.
Several values for one entry are separate records, joined by “and”; a condition that tells them apart may be missing. Equal entries are not always repeated.

How the values were obtained:
[1] = biological target: Insulin receptor isoform B (Homo sapiens) (UniProt P06213)
[2] = biological target: Insulin receptor isoform A (Homo sapiens) (UniProt P06213)

Chain of Insulin (P01308 90-110): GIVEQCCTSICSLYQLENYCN

## Insulin (from UniProt P01308)
[1]
  Kd: 1.8 nM and 1.56 nM
[2]
  Kd: 0.91 nM and 2.1 nM
